Reference: US20230349919A1

How the values were obtained:
[1] = target: IgE (lambda light chain) secreted by U266 cells; experiment: flow cytometry, U266 cells alone with the StAv-FcεRIα capture complex; x axis Secreted IgE, y axis IgM
[2] = target: IgE (lambda light chain) secreted by U266 cells; experiment: flow cytometry, Ramos + U266 mixed 100X1 with the StAv-FcεRIα capture complex; 94.6 % of the cells lie in the IgM+ gate at low secreted IgE
Secreted IgG = experiment: flow cytometry, human bone marrow plasma cells (CD20- CD38++) with NHS-biotin, StAv-anti-human Igk and anti-IgG; controls in FIG. 21B (D00065): without NHS-Biotin 1.2%, without StAv-IgKappa 0.72%, without anti-IgG 0%

Q: “secreted IgE capture reagent: streptavidin conjugated to the ectodomain of the high affinity IgE receptor FcεRIα (from UniProt P12319 26-205)” was tested. Which % of cells in the secreted IgE+ / IgM- gate [1] did it give?
A: Its % of cells in the secreted IgE+ / IgM- gate is 94.9%.

Q: And the % of cells in the secreted IgE+ / IgM- gate [2]?
A: Its % of cells in the secreted IgE+ / IgM- gate is 2.4%.

Q: How did the % IgG+ of plasma cells (Secreted IgG) turn out when “streptavidin coupled to anti-human Igk (antibody)” was run?
A: The % IgG+ of plasma cells was 5.2%.
